# According to doi:10.1101/2020.04.30.069369:
# T1: Rgg3St (Streptococcus thermophilus, UniProt Q5M4D0 1-284)
# T1 sequence: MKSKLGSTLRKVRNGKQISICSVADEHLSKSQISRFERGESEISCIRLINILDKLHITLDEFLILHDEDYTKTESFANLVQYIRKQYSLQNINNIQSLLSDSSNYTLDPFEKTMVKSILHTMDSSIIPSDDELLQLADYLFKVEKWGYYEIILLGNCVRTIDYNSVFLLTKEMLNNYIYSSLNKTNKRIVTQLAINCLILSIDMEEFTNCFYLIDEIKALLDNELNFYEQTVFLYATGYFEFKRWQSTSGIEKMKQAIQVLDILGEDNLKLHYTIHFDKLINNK
# B1: Rgg3 box (pSHP3DNA) (dsDNA)
# DNA 1: CATAATTTTCCCATTTCCCCAACAAAAAAG
# DNA 2: TTTTTGTTGGGGAAATGGGAAAATTATGCT
# Assays:
# [1] = biological target: Streptococcus dysgalactiae Rgg2 (S. dysgalactiae); assay: crystal structure
# [2] = biological target: Streptococcus thermophilus Rgg3 (S. thermophilus); assay: cryo-EM structure
# Rgg3St = biological target: T1, Rgg3St; assay: X-ray crystallography
molecule,measurement,setting,value
Streptococcus dysgalactiae Rgg2 (natural protein),stoichiometry N,[1],2
Streptococcus thermophilus Rgg3 (natural protein),stoichiometry N,[2],2
B1,binding result,Rgg3St,binds
